# Measurements taken from patent US20250282879A1 (CILAG GMBH INTERNATIONAL, published 2025).
# Read-outs that look alike come from different tables or passages of the source.
# T1: recombinant human IL-31 protein (Peprotech) (human, UniProt Q6EBC2 24-164)
# T1 sequence (looked up): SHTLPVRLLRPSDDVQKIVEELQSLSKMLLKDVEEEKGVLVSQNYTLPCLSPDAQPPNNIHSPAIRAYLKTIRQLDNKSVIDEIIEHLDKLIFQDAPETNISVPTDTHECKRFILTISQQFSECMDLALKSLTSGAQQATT
# T2: human IL-31-His (human, UniProt Q6EBC2 24-164)
# T2 construct: captured via an anti-His tag antibody; also called human IL-31 (scFv SPR); not shown: His tag
# T2 sequence (looked up): T1 sequence (looked up)
# B1: PRO2198 (bispecific antibody, human IgG4 S228P, kappa)
# light: DIQMTQSPSSLSARVGDRVTITCQASEDIESYLAWYQQKPGKAPKLLIYRASTLAYGVPSRFSGSGSGRDFTLTISSLQPEDFATYYCLGSSYSTGSNIFGQGTKVEIKRTVAAPSVFIFPPSDEQLKSGTASVVCLLNNFYPREAKVQWKVDNALQSGNSQESVTEQDSKDSTYSLSSTLTLSKADYEKHKVYACEVTHQGLSSPVTKSFNRGEC
# heavy: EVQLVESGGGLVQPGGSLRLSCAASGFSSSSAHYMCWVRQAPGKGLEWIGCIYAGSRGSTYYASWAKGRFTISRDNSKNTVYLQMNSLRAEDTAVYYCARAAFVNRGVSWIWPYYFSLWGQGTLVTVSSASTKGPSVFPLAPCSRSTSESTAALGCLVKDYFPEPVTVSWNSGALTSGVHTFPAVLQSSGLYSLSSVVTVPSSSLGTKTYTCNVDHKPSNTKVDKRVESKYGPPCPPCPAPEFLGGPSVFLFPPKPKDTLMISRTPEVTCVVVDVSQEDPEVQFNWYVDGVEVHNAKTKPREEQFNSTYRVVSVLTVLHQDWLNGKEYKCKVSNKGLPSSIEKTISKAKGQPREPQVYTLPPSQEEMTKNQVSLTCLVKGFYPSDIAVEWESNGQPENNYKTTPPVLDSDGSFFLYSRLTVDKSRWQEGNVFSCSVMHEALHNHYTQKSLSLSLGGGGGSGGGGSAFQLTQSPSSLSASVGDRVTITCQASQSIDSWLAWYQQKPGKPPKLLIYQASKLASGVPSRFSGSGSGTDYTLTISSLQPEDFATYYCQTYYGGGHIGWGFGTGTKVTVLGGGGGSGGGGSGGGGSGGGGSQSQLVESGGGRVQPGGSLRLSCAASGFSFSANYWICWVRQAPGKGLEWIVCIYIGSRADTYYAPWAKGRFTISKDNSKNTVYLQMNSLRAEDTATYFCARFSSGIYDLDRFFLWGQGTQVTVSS
# notes: IgG4 (S228P) Morrison-H, anti-IL-4R Fab arms, anti-IL-31 scFv on the C-terminus of the heavy chain; tetravalent, bispecific; also called Morrison-H; MorrH
# B2: PRO1643 (scFv, V domains shown)
# VH: QSQLVESGGGLVQPGGSLRLSCAASGFSFSANYWICWVRQAPGKGLEWIVCIYIGSRADTYYAPWAKGRFTISKDNSKNTVYLQMNSLRAEDTAVYFCARFSSGIYDLDRFFLWGQGTLVTVSS
# V domain: AFQLTQSPSSLSASVGDRVTITCQASQSIDSWLAWYQQKPGKPPKLLIYQASKLASGVPSRFSGSGSGTDYTLTISSLQPEDFATYYCQTYYGGGHIGWGFGTGTKVTV
# notes: anti-IL-31 scFv, full graft; VL entry ends with LCDR3 (no FR4); also called 50-09-D07-sc03
# B3: dupilumab (antibody, V domains shown)
# VH: EVQLVESGGGLEQPGGSLRLSCAGSGFTFRDYAMTWVRQAPGKGLEWVSSISGSGGNTYYADSVKGRFTISRDNSKNTLYLQMNSLRAEDTAVYYCAKDRLSITIRPRYYGLDVWGQGTTVTVSS
# VL: DIVMTQSPLSLPVTPGEPASISCRSSQSLLYSIGYNYLDWYLQKSGQSPQLLIYLGSNRASGVPDRFSGSGSGTDFTLKISRVEAEDVGFYYCMQALQTPYTFGQGTKLEIKR
# What was measured:
# [1] = target: T3, human IL-4R on cells (HEK-Blue IL-4/IL-13 cells, human PBMC, human whole blood) (human, UniProt P24394 26-825); experiment: cell-based or functional assay
# [2] = target: T3, human IL-4R on cells (HEK-Blue …); experiment: cell-based or functional assay; remark: listed apart in the source
# [3] = target: T3, human IL-4R on cells (HEK-Blue …); experiment: cell-based or functional assay; remark: listed apart in the source
# [4] = target: T1, recombinant human IL-31 protein …; experiment: cell-based or functional assay
# [5] = target: T3, human IL-4R on cells (HEK-Blue …); experiment: cell-based or functional assay; remark: listed apart in the source
# [6] = target: T1, recombinant human IL-31 protein …; experiment: cell-based or functional assay; remark: listed apart in the source
# [7] = target: T4, recombinant cynomolgus monkey IL-31 (ECD with His Tag, Sino Biological) (cynomolgus monkey); experiment: cell-based or functional assay
# [8] = target: T5, human IL-4R on transfected HEK293T cells (human, UniProt P24394 26-825); experiment: flow cytometry, transfected HEK293T cells
# T5 construct: whole, on cells; also called human IL-4R-expressing HEK293T cells; not shown: V5 Tag fused to the N-terminus of the expression construct
# From the text: (§1) To test binding of the Morrison-H and Morrison-L antibodies PRO2198, PRO2199, PRO2206 and PRO2207 to human or cynomolgus IL-4R-expressing HEK293T cells, HEK293T cells were transfected with human and cynomolgus IL-4R plasmids and mock plasmid using Lipofectamine3000. Binding of an antibody targeting V5 Tag, which is fused to the N-terminus of human and cynomolgus IL-4R expression constructs, would confirm successful expression of both targets and was thus used as a positive control for plasma membranous binding. The Morrison-H molecule PRO2077 was used as negative control for cynomolgus IL-4R binding since this molecule had not shown any cross-reactivity to cynomolgus IL-4R (see section 5.3.).
# (§2) 50,000 transfected HEK293T cells per well were seeded in a 96-well plate. 5-fold serial dilutions of the Morrison-H and Morrison-L antibodies PRO2198, PRO2199, PRO2206 and PRO2207 and of the control molecule PRO2077, which is not cross-reactive to cynomolgus IL-4R, were added at concentrations ranging from 5,000 to 0.32 ng/ml to the plates and incubated for 60 min at 4° C. on a shaker. Supernatants were removed and detection reagent was added for flow cytometry analysis. The geometric mean of the APC fluorescence intensity of single cells was calculated.
# [9] = target: T6, cynomolgus IL-4R on transfected HEK293T cells (cynomolgus monkey, UniProt A0A2K5V580 33-832); experiment: flow cytometry, transfected HEK293T cells
# T6 construct: whole, on cells; also called cynomolgus IL-4R-expressing HEK293T cells; not shown: V5 Tag fused to the N-terminus of the expression construct
# T6 sequence (A0A2K5V580 entry or part of it): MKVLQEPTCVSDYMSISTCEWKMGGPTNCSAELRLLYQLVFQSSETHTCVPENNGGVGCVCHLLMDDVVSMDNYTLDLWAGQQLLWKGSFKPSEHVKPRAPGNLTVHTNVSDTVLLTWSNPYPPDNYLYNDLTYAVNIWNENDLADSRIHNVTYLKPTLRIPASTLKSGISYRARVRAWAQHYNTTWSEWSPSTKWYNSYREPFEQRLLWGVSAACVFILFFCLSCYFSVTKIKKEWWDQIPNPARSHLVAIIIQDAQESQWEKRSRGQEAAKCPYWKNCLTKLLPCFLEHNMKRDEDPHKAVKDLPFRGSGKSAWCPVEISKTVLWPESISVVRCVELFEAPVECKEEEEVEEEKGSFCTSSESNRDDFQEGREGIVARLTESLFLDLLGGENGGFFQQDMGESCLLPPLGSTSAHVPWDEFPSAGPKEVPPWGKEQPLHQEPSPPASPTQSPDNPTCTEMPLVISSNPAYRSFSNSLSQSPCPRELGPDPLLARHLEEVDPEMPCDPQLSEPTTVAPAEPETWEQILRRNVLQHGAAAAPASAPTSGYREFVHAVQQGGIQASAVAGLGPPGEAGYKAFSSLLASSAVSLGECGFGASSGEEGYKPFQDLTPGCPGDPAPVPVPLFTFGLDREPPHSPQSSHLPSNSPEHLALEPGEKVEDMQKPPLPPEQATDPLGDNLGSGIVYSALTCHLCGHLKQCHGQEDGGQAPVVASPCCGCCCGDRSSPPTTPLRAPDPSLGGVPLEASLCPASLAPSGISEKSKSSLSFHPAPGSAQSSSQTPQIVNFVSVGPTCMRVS
# From the text: as §1, §2
# [10] = target: T4, recombinant cynomolgus monkey IL-31 …; experiment: SPR, Morrison captured on immobilized human IL-4R-Fc, IL-31 analyte
# [11] = target: T7, recombinant human IL-4R protein (ECD with His Tag, Sino Biological) (human, UniProt P24394 26-232); experiment: SPR, Morrison captured via anti-human IgG-Fc, IL-4R ECD-His analyte
# T7 construct: extracellular domain; bought; also called human IL-4R ECD; not shown: His Tag
# Description: (§3) Binding kinetics (including affinity) of the bispecific Morrison-H (PRO2198, PRO2199) and Morrison-L (PRO2206, PRO2207) molecules to recombinant human IL-4R protein (ECD with His Tag, Sino Biological) were determined by SPR analysis on a T200 device (Biacore, Cytiva). In this SPR experiment, Morrison molecules were captured via an anti-human IgG-Fc antibody (Human Antibody Capture Kit; Biacore, Cytiva) covalently immobilized to a carboxylmethylated dextran surface (CM5 sensorchip; Biacore, Cytiva) and a titration series of human IL-4R ECD was injected as analyte. After each analyte injection cycle, the sensor chip was regenerated (MgCl₂), and new Morrison antibody was subsequently re-captured. […] The apparent dissociation (kd) and association (kₐ) rate constants and the apparent dissociation equilibrium constant (KD) were calculated with the Biacore analysis software (Biacore Evaluation software Version 3.2, Cytiva) using one-to-one Langmuir binding model and quality of the fits was monitored based on Chi2 and U-value, which are measures for the quality of the curve fitting. The binding level was calculated as the maximum stability binding achieved normalized to the theoretical Rmax. Cross-reactivity to cynomolgus monkey IL-4R was measured using the same setup as for the analysis of human IL-4R kinetics, with the difference that recombinant cynomolgus monkey IL-4R (ECD with His-tag, Acro Biosystems) protein was used as analyte instead of human IL-4R.
# [12] = target: T8, recombinant cynomolgus monkey IL-4R (ECD with His-tag, Acro Biosystems) (cynomolgus monkey, UniProt A0A2K5V556 26-232); experiment: as above
# T8 construct: bought; also called cynomolgus IL-4R
# T8 sequence (A0A2K5V556 entry or part of it limits assumed): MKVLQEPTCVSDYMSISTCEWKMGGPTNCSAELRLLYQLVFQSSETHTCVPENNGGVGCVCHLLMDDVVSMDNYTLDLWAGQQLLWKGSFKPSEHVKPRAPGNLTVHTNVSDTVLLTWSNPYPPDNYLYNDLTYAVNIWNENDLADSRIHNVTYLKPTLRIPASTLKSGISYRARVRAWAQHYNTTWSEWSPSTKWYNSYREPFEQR
# Description: as §3
# [13] = target: T1, recombinant human IL-31 protein …; experiment: cell-based or functional assay; remark: listed apart in the source
# [14] = target: T1, recombinant human IL-31 protein …; experiment: cell-based or functional assay; remark: listed apart in the source
# [15] = target: T1, recombinant human IL-31 protein …; experiment: competitive ELISA, hIL-31/hIL-31RA
# Description: Potency of the two humanized scFvs was further determined using a competitive ELISA. The potency of each scFv to inhibit the interaction between human IL-31 and human IL-31RA was assessed by an ELISA using the same procedure as described in EP20216938.9.
# human IL-31-His [16] = target: T2, human IL-31-His; experiment: SPR, IL-31-His captured, scFv analyte (30 and 10 nM)
# Description: (§4) Affinity of the two humanized scFvs to human and cynomolgus IL-31 was determined by SPR analysis on a T200 device (Biacore, GE Healthcare). Cynomolgus IL-31 was manufactured on demand by Sino Biological since it was not available commercially. Human and cynomolgus IL-31-His was captured via an anti-His tag antibody coupled to a carboxylmethylated dextran surface and the scFvs were injected as analyte. After each analyte injection cycle the sensor chip was regenerated and new antigen was captured. The scFvs were measured using a dose response multi-cycle kinetic assay in a high-throughput mode with two concentrations (30 and 10 nM) diluted in running buffer. Obtained sensorgrams were fitted using a 1:1 binding model.
# Affinity of PRO1643 and of the optimized anti-IL-31 scFvs to human IL-31 was determined by SPR analysis on a T200 device (Biacore, GE Healthcare), as described above in section 2.2.2. The scFvs were measured using a dose response multi-cycle kinetic assay in a high-throughput mode with two concentrations (30 and 10 nM) diluted in running buffer. Obtained sensorgrams were fitted using a 1:1 binding model.
# human IL-31-His [17] = target: T2, human IL-31-His; experiment: SPR, IL-31-His captured, scFv analyte, screening mode
# Description: as §4
# human IL-31-His [18] = target: T2, human IL-31-His; experiment: SPR, IL-31-His captured, scFv analyte, full titration mode
# [19] = target: T3, human IL-4R on cells (HEK-Blue …); experiment: cell-based or functional assay; remark: listed apart in the source
# [20] = target: T9, human IL-4R (form not stated) (human, UniProt P24394 26-232, limits assumed); experiment: competition ELISA, hIL-4/IL-4R (plate of PRO1898)
# T9 construct: whole entry named; also called hIL-4R
# [21] = target: T9, human IL-4R (form not stated); experiment: competition ELISA, hIL-4/IL-4R (plate of PRO1899)
binder,measurement,setting,value
B1,"IC50, IL-4-induced TARC secretion in human whole blood",[1],< 0.5 nM
same,"Mean IC50, human IL-4-induced signaling, stat-6 reporter gene assay",[2],0.0239 nM
same,"Mean IC50, human IL-13-induced signaling, stat-6 reporter gene assay",[3],0.0221 nM
same,"Mean IC50, human IL-31-induced signaling, IL-31RA/OSMR dimerization assay",[4],0.198 nM
same,"IC50, IL-4-induced CD23 expression, memory B cells",[5],4.47 nM
same,"IC50, IL-4-induced CD23 expression, monocytes (blood donor 1)",[5],0.0904 nM
same,"IC50, IL-4-induced CD23 expression, naive B cells",[5],1.37 nM
same,"IC50 (read off the curve), human IL-31-induced IL-31RA/OSMR dimerization, with an excess of IL-4R extracellular domain in the medium",[6],~0.2 nM
same,"IC50, cynomolgus IL-31-induced IL-31RA/OSMR dimerization (RLU) [table under the graph]",[7],0.959 nM
same,EC50,[8],1.11 nM
same,EC50,[9],0.97 nM
same,Kd,[10],0.01 nM
same,Kd,[11],0.291 nM
same,koff,[11],0.000101 s⁻¹
same,kon,[11],352000 M⁻¹ s⁻¹
same,Kd,[12],0.144 nM
same,koff,[12],4.9e-05 s⁻¹
same,kon,[12],370000 M⁻¹ s⁻¹
B2,"IC50, neutralization of hIL-31-induced signaling in IL-31RA/OSMR dimerization assay",[13],11.1 ng/mL
same,"IC50, neutralization of hIL-31-induced signaling in IL-31RA/OSMR dimerization assay",[14],8.08 ng/mL
same,IC50,[15],4.58 ng/mL
same,Kd,human IL-31-His [16],1.13 nM
same,koff,human IL-31-His [16],0.000653 s⁻¹
same,kon,human IL-31-His [16],579000 M⁻¹ s⁻¹
same,Kd,human IL-31-His [17],0.505 nM
same,koff,human IL-31-His [17],0.000447 s⁻¹
same,kon,human IL-31-His [17],884000 M⁻¹ s⁻¹
same,Kd,human IL-31-His [18],0.63 nM
same,koff,human IL-31-His [18],0.000516 s⁻¹
same,kon,human IL-31-His [18],820000 M⁻¹ s⁻¹
B3,"IC50, neutralization of hIL-4 induced signaling, stat-6 reporter gene assay",[19],1.15 ng/mL
same,"IC50, neutralization of hIL-13 induced signaling, stat-6 reporter gene assay",[19],1 ng/mL
same,IC50,[20],6.78 ng/mL
same,IC50,[21],6.18 ng/mL
